Assay results from patent publication US20250382344A1, “Soluble GLP1/GIP/NPY2 Receptor Triple Agonists” (Boehringer Ingelheim International GmH, priority 2024, published 2025).
Changes are numbered by the printed parent chain. *1 amine or outer side, *2 acyl side, *3 side chain or, on linkers, in order; H or OH if unused. Where no end group is shown, it is not given here. Side-chain parts run from the residue outwards. [ ]: non-standard residue; d: D form. The star is where a group is joined. C20 diacid = O=C(O)CCCCCCCCCCCCCCCCCCC(=O)*; C18 diacid = O=C(O)CCCCCCCCCCCCCCCCC(=O)*; γGlu = O=C(O)[C@H](CCC(=O)[*:2])N[*:1]; εLys = N[C@@H](CCCCN[*:1])C(=O)[*:2]; Aib = CC(C)(N)C(=O)O

B1: Compound 42 (peptide)
peptide: YXEGTFTSDYSIXLEQQAQXAFVRHLINKXTRQRY
modifications: Aib at 2, 13, 20, 30; Lys29 epsilon-amino acylated with C18DA-gGlu-gGlu-gGlu-gGlu-gGlu; C-terminal amide
B2: Compound 7 (peptide)
peptide: B1 peptide with Q16K, X30L
modifications: Aib at 2, 13, 20; Lys29 epsilon-amino acylated with C18DA-gGlu-gGlu-gGlu-gGlu-gGlu-OEG; C-terminal amide
B3: Compound 85 (peptide)
peptide: B1 peptide with T5A, Q16K
modifications: Aib at 2, 13, 20, 30; Lys29 epsilon-amino acylated with C18DA-gGlu-gGlu-gGlu-gGlu-gGlu-gGlu-eLys; C-terminal amide
B4: Compound 54 (peptide)
peptide: B1 peptide with T5E, Q16K
modifications: Aib at 2, 13, 20, 30; Lys29 epsilon-amino acylated with C18DA-gGlu-gGlu-gGlu-gGlu-gGlu-gGlu-eLys; C-terminal amide
B5: Compound 48 (peptide)
peptide: Y[Aib]EGTFTSDYSI[Aib]LEEQAQ[Aib]AFVRHLINK([εLys-γGlu-γGlu-γGlu-γGlu-γGlu-C18 diacid])[Aib]TRQRY-NH2
B6: Compound 59 (peptide)
peptide: Y[Aib]EGTFTSDYSI[Aib]LEKQAQ[Aib]AFVRHLINK([εLys-γGlu-γGlu-γGlu-γGlu-γGlu-C20 diacid])[Aib]TRQRY-NH2
B7: Compound 29 (peptide)
peptide: Y[Aib]EGTFTSDYSIALEKQAQ[Aib]AFVRHLINK([γGlu-γGlu-γGlu-γGlu-γGlu-γGlu-C20 diacid])[Aib]TRQRY-NH2
B8: Compound 52 (peptide)
peptide: Y[Aib]EGTFTSDYSI[Aib]LEKQAQ[Aib]AFVRHLINK([γGlu-γGlu-εLys-γGlu-γGlu-γGlu-γGlu-C20 diacid])[Aib]TRQRY-NH2
B9: Compound 70 (peptide)
peptide: Y[Aib]EGTFTSDYSI[Aib]LDQQAQ[Aib]AFVRHLINK([εLys-γGlu-γGlu-γGlu-γGlu-γGlu-C18 diacid])[Aib]TRQRY-NH2

What was measured:
human GLP-1 receptor = human GLP-1 receptor (human, UniProt P43220 24-463); experiment: cell-based or functional assay
[1] = molecular target: T1, human neuropeptide Y2 receptor (human, UniProt P49146 1-381); experiment: cell-based or functional assay
T1 sequence (looked up): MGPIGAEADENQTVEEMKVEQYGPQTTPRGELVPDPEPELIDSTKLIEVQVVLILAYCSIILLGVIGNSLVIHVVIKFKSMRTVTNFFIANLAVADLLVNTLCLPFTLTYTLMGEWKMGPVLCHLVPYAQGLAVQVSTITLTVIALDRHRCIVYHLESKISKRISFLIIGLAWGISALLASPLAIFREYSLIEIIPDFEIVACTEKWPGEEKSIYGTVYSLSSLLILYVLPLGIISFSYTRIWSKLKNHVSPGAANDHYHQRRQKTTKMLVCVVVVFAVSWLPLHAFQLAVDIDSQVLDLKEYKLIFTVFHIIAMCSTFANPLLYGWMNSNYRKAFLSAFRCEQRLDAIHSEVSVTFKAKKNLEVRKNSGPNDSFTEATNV

Row | Binder | EC50, CreLuc reporter, 0.5% hP (human GLP-1 receptor) [nM] | EC50, CreLuc reporter, 100% hP (human GLP-1 receptor) [nM] | EC50, CreLuc reporter, 0.5% hP [1] [nM] | EC50, CreLuc reporter, 100% hP [1] [nM]
1 | B1 | 0.9 | 14.5 | 81.4 | 704
2 | B2 |  | 7.9 | 12.4 | 80.6
3 | B3 | 10.4 | 14.5 |  | 16.2
4 | B4 | 3.4 | 14.4 |  | 38.3
5 | B5 | 0.5 |  | 11.6 | 77.2
6 | B6 |  | 16.7 | 5.7 | 
7 | B7 | 5.5 | 33 | 41.3 | 180
8 | B8 | 3.3 |  |  | 152
9 | B9 | 0.2 |  | 12.8 | 119
